According to the supplement of paper PMC10567573:
± gives the standard deviation.

Assay: protein stability index of a GFP-peptide fusion (GPS, HEK-293T) (PSI 1-6); higher = more stable
[1] = treatment: DMSO, c terminus: a fixed tail appended
[2] = treatment: MLN4924 1 uM, 8 h, c terminus: a fixed tail appended
[3] = treatment: DMSO, c terminus: native
[4] = treatment: MLN4924 1 uM, 8 h, c terminus: native
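Note: 24-mer peptide tiles fused after GFP, lentivirally expressed, FACS-sorted into six equal bins by GFP/DsRed ratio, decoded by Illumina sequencing, PSI is the read-weighted mean bin number.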

Sequence | protein stability index [1] | protein stability index [2] | protein stability index [3] | protein stability index [4]
MALRGPAGLGPGSRRPLDEAVAGA [DENND6A] | 4.12 ± 0.42 | 4.53 ± 0.19 | – | –
GAVLALVAIFIMSLNKRHSSGDGN [MFSD9] | 3 ± 0.21 | 3.43 ± 0.59 | – | –
INRVSTCYSEEITVCGDLHGQLDD [PPEF2] | 4.24 ± 0.33 | 3.96 ± 0.27 | – | –
YYAKRNALRAAEVWMDDFKSHVYM [GALNT9] | 2.24 ± 0.44 | 2.12 ± 0.26 | – | –
SKSSHPLIRSLFHGFLFMIFQIGV [SOAT1] | 2.81 ± 0.84 | 2.72 ± 0.18 | – | –
LKMKEREEAWVKIENLAKANPQYT [PPP2R5C] | 3.4 ± 0.22 | 3.56 ± 0.19 | – | –
SSVTAAVSGLLVGYELGIISGALL [SLC2A12] | 2.8 ± 0.2 | 2.82 ± 0.18 | – | –
SEQCYYIFGDLCGNMANLSLHDHD [DVL3] | 2.96 ± 0.19 | 2.91 ± 0.27 | – | –
AALDACSGNDPFAPSEGSAEAAPE [SNAP91] | 5.43 ± 0.25 | 5.46 ± 0.3 | – | –
KRNNFYIKIRPGEFEQFESTIGFK [EPB41L3] | 2.12 ± 0.52 | 2.46 ± 0.24 | – | –
TFGAAACSIGFAVRYLNAYTGIVL [POP5] | 3.18 ± 0.57 | 3.45 ± 0.15 | – | –
CSVHYVSDSGDGVYAGRPLSVIQM [FBXO34] | 2.37 ± 0.78 | 2.75 ± 0.68 | – | –
RAPEVLLQSTYATPVDMWSVGCIF [CDK4] | 2.7 ± 0.28 | 2.35 ± 0.34 | – | –
EVASNTEMIQTSKTEITDLRRTMQ [KRT15] | 3.89 ± 0.21 | 4.27 ± 0.32 | – | –
RGTPPRRHSFRKHLYLLRGLPGSG [N4BP2L1] | 2.64 ± 0.3 | 2.94 ± 0.21 | – | –
VRRGHSHLAPSEAKAADSPTRNDL | 4.96 ± 0.16 | 4.9 ± 0.2 | – | –
LVPILIEAARNGKMKFVIGNGKNL [NSDHL] | 2.52 ± 0.3 | 2.36 ± 0.28 | – | –
LTTSQERELGIRQRDEQLRALQER [FBF1] | 5.02 ± 0.38 | 5.24 ± 0.29 | – | –
ERSLRLQARYHDTPYKPPAGRAAA [MYORG] | 3.55 ± 0.31 | 4.15 ± 0.11 | – | –
ENLKQQRSRREQFSRAPVSALPLA [STX5] | 3.74 ± 0.37 | 3.75 ± 0.17 | – | –
YKGRQLQGCPGAKKHEFLTSVLDA [SMOC2] | 3.39 ± 0.42 | 3.73 ± 0.73 | – | –
LCNEISLSEIKDAPKVNAVDTLNV [DLC1] | 3.77 ± 0.4 | 3.81 ± 0.25 | – | –
RCLHASQWPVCAACPVRKFWSVG [BRF1] | – | – | 2.4 ± 0.14 | 2.17 ± 0.34

Sequence | protein stability index [1] | protein stability index [2] | protein stability index [3] | protein stability index [4]
APPPRDYTYRDYGHSSSRDDYPSR [RBMX] | 4.43 ± 0.21 | 4.32 ± 0.078 | – | –
VVAVHVVLALFVYVAWNEGSRQWR [VMA21] | 2.84 ± 0.3 | 2.88 ± 0.16 | – | –
VLKRQRKRRVALSPVTENSTSLSF [MYBL2] | 3.59 ± 0.22 | 3.5 ± 0.14 | – | –
EFRAHRAVLAASSPYFHDQVLLKG [ZBTB22] | 2.57 ± 0.23 | 2.77 ± 0.4 | – | –
ETSYQQREERLRRENEELSARYLS [FBF1] | 4.79 ± 0.2 | 4.89 ± 0.17 | – | –
LEGQSPPQSLPSTPKAAWIREEGR [PBXIP1] | 4.89 ± 0.26 | 4.76 ± 0.091 | – | –
SHLQAAAQTPPRPGPPSAPPPPPK [SCNN1D] | 5.09 ± 0.26 | 5.22 ± 0.14 | – | –
STPVRREVTDKEQEFAARAAKQLE [EPB41L3] | 5.28 ± 0.2 | 5.27 ± 0.21 | – | –
LGNREALIQFLEQVHQGIKGMVLD [CPN1] | 2.43 ± 0.34 | 2.26 ± 0.18 | – | –
RPHEVLLCSDLVKAYQRCVSAAHK [CHCHD6] | 2.64 ± 0.11 | 2.75 ± 0.61 | – | –
YSRRLQVQERLTKQIAVAITEALR [GCH1] | 2.34 ± 0.47 | 2.19 ± 0.38 | – | –
KPPMMPQAQPAIPRPNRLFLRQLR [C2CD2L] | 3.22 ± 0.17 | 3.43 ± 0.42 | – | –
QGSLSNTYLSKVDPDGKKIKQIQQ [FBXO33] | 4.28 ± 0.31 | 4.34 ± 0.18 | – | –
QSHPHLVAEAFRALASAQCPQFGI [SPOPL] | 2.35 ± 0.4 | 2.16 ± 0.023 | – | –
IRCRHPPPGSHLLYAKMIQKLADL [VDR] | 2.37 ± 0.33 | 2.23 ± 0.13 | – | –
DQPMGGWEMIRKIGDTSVSYKYTS [LMNB1] | 3.1 ± 0.31 | 3.2 ± 0.28 | – | –
VSVESQQVQQVEVEATVKPELTAA [PRPH] | 5.23 ± 0.089 | 5.25 ± 0.12 | – | –
ACTLTVFPPEETTPSPSRESPLSA [KLHL13] | 4.35 ± 0.32 | 4.45 ± 0.15 | – | –
QPMCEEHEEERINIYCLNCEVPTC [TRIM55] | 4.43 ± 0.2 | 4.31 ± 0.22 | – | –
DWRKNIEEKSGMEGRKKMFESES [TNNI2] | – | – | 3.04 ± 0.93 | 3.86 ± 0.92
KVPIAQDELALSLGYAASLEASVQ [C2CD2L] | 3.65 ± 0.33 | 3.64 ± 0.34 | – | –
TPVVTESTATSITLTWDSGNPEPV [PTPRD] | 4.21 ± 0.057 | 4.16 ± 0.33 | – | –
PHQTSKMENLPGLASGPGKYMPHL | 3.44 ± 0.23 | 3.65 ± 0.076 | – | –

Sequence | protein stability index [1] | protein stability index [2] | protein stability index [3] | protein stability index [4]
SPMSAATLGGLNPSPSEVITPWTP [SMTNL2] | 4.44 ± 0.18 | 4.46 ± 0.28 | – | –
RHFFTSWASCLQYDFDTQYAFVGD [WDFY1] | 2.37 ± 0.28 | 2.39 ± 0.17 | – | –
LEEEIRRKQILLRGKLKKTEEELR [ZC2HC1C] | 4.39 ± 0.17 | 4.59 ± 0.39 | – | –
NFDSIYICPSTFACAQLATGAACR [HDAC6] | 2.24 ± 0.21 | 2.16 ± 0.26 | – | –
ELSLVTLFRCIQNMPETLPNNSCY [TNFSF13B] | 3.65 ± 1.3 | 2.94 ± 0.5 | – | –
QARYHDTPYKPPAGRAAAPELSYR [MYORG] | 3.69 ± 0.15 | 3.85 ± 0.13 | – | –
ATAVGGGFFLLQLANHTGYIKVDW [FUNDC2] | 3.27 ± 0.8 | 3.08 ± 0.47 | – | –
SLHKHLTIRLNISDVNDNAPRFNQ [PCDHGC5] | 2.32 ± 0.34 | 2.28 ± 0.27 | – | –
IVSQKQMSDRRENDMSPSNNVVPI [RAB11A] | 4.34 ± 0.13 | 4.54 ± 0.14 | – | –
IARVHGTFGAAACSIGFAVRYLNA [POP5] | 2.22 ± 0.26 | 2.25 ± 0.56 | – | –
KTKEVQHNCQLHRISFCADDKTDK [GULP1] | 4.66 ± 0.36 | 4.71 ± 0.21 | – | –
EGQDLQHISNQKMPTGPPEDRLSL [DRICH1] | 5.11 ± 0.37 | 5.03 ± 0.26 | – | –
DALMKEQLVEMTGLSPRVIRVWFQ [ISL2] | 2.27 ± 0.27 | 2.22 ± 0.12 | – | –
MEADSPAGPGAPEPLAEGAAAEFS [SLC35F2] | 5.5 ± 0.27 | 5.48 ± 0.29 | – | –
TELRRSGSSRSPGSKARAEGRGPV [PLEKHN1] | 4.84 ± 0.31 | 4.96 ± 0.52 | – | –
YAFVGDYSGQITLLKLEQNTCSVI [WDFY1] | 2.94 ± 0.65 | 2.72 ± 0.58 | – | –
PGLLGSMALSNHYRSEDLLDVDTA [FBXO3] | 4.24 ± 0.097 | 4.32 ± 0.24 | – | –
DSRRVTKENSHQVKEELSQKFDTL [TRIM63] | 5.08 ± 0.066 | 5.02 ± 0.28 | – | –
IDKFGFIVGSQGAEGALEEVPLEV [TBC1D10A] | 4.32 ± 0.16 | 4.42 ± 0.34 | – | –
GGSGPAGLRASTSDGILRGNGTGY [RHOBTB2] | 4.31 ± 0.27 | 4.24 ± 0.39 | – | –
TMQSMFAKNFHVKAVMKTSVLLSW [PTPRD] | 2.48 ± 0.73 | 2.94 ± 0.42 | – | –
VIPECAHGGLYKPVQCHPSTGYCW [SMOC2] | 2.38 ± 0.56 | 2.77 ± 0.9 | – | –
ETKLHLLRQEMVNLRATDVRLMRQ [LURAP1L] | 2.96 ± 0.34 | 3.17 ± 0.16 | – | –

Sequence | protein stability index [1] | protein stability index [2] | protein stability index [3] | protein stability index [4]
SLIPLILDLMKEWIAHSEKLPRKV [SPACA9] | 2.28 ± 0.46 | 2.02 ± 0.36 | – | –
EHVFDLILELYNIDSHLLLSVLPQ [PDS5B] | 2.92 ± 0.47 | 2.85 ± 0.72 | – | –
SITVSKVDKDQPSILNSCEDPVPG [FBXO34] | 5.25 ± 0.22 | 5.25 ± 0.12 | – | –
LPKLYLPTGPRRGRDELGGGRRPG [CDKN1A] | 4.05 ± 0.63 | 4.35 ± 0.38 | – | –
CLDPIIYFFLCQPFREILCKKLHI [P2RY14] | 2.74 ± 0.2 | 3.252 ± 0.02 | – | –
QVHDDDLLSSSEEECKDRERPMYG [EMD] | 5.49 ± 0.22 | 5.41 ± 0.13 | – | –
EIFRRHFRQLCYQETPGPREALTR [ZSCAN9] | 2.51 ± 0.17 | 2.76 ± 0.24 | – | –
TIGVEFATRSIQVDGKTIKAQIWD [RAB11A] | 3.04 ± 0.2 | 3.08 ± 0.32 | – | –
QCQEAEQARAELTAQHQRRLAAIA [FBF1] | 4.34 ± 0.05 | 4.28 ± 0.15 | – | –
PPCAWACPVPAHRRGSWRLPYTDG [CTBP1-DT] | 2.92 ± 0.23 | 2.93 ± 0.17 | – | –
LRLEEPRMDFAAKLMKNIRFPLMT [KLHL13] | 2.31 ± 0.29 | 2.43 ± 0.37 | – | –
EEPELSPAYLISEAMRRSRMSLYC [GFOD1] | 2.43 ± 0.23 | 2.37 ± 0.3 | – | –
KKFELVPSPPTSPPWGLGPGAGDP [MYCL] | 4.1 ± 0.28 | 4.07 ± 0.21 | – | –
AWDNPAYSGPPSPHGTLRVCTISS [PKD2L1] | 2.93 ± 0.31 | 3.05 ± 0.37 | – | –
MAKSVKYTVNFLEAKEGDLHRIEI [CARM1] | 2.55 ± 0.61 | 2.46 ± 0.58 | – | –
VAKKTPTKRSTLIISGVSKVPIAQ [C2CD2L] | 3.02 ± 0.33 | 3.24 ± 0.33 | – | –
ELRDLQVSVESQQVQQVEVEATVK [PRPH] | 4.88 ± 0.2 | 4.96 ± 0.14 | – | –
FSGWISALVVPKGNTAVSVLMLLV [SCAMP3] | 2.87 ± 0.39 | 2.73 ± 0.46 | – | –
TASSLVKINLQGDIVDRGSTNLGV [ADD1] | 3.36 ± 0.68 | 3.36 ± 0.25 | – | –
SEKKTISFQGCMAQLFMDHLFAGA [OR4A15] | 2.56 ± 0.73 | 2.66 ± 0.79 | – | –
